In patent publication US20220242939A1 (BIOARCTIC, published 2022):
Non-standard residues stand in square brackets, D forms with d. No end group written: not given here. Ahx = NCCCCCC(=O)O

Experiments:
[1] = target: T1, L198 N-terminal neo-epitope peptide LAGQPL-Acp-C (SEQ ID NO:52) conjugated to BSA (human, not fully specified (residue 8); printed as LAGQPL-Acp-C; also: C-terminal Cys conjugated to BSA carrier); experiment: direct ELISA, L198-BSA peptide coated at 1 µg/ml
T1 construct: BSA carrier; also called L198-BSA peptide
T1 peptide: LAGQPL[Ahx]C
Procedure: (§1) Selectivity evaluation of purified monoclonal antibodies by direct ELISA: The direct ELISA described below was used to evaluate the binding selectivity of the purified monoclonal antibodies produced in Example 14.
(§2) The screening was performed according to standard ELISA protocols. Briefly, 1 μg/ml solutions of BSA-conjugated neo-epitope peptides and negative control peptide, and 0.1 μM recombinant C-terminal ApoE fragment and full-length ApoE (Abcam, cat. no. ab50243) were prepared by dilution in PBS. 50 μl/well were added to an ELISA half-area 96 well microtiter plate, and the plate was sealed with adhesive sealer and incubated over night at 4° C. After discarding the solution, the plates were blocked with 150 μl/well of protein-free blocking solution (Pierce) for 1 h at room temperature with shake (600-900 rpm). The plates were washed four times with washing buffer containing 0.28 mM NaH₂PO₄, 2.5 mM Na₂HPO₄, 150 mM NaCl, 0.1% TWEEN®-20 and 0.0075% Kathon CG. Purified monoclonal antibodies of interest were 3-fold serially diluted with a starting dilution at 3 μg/ml (mixed 1:2 with dilution buffer (PBS with 0.1% BSA and 0.05% TWEEN®-20)). An anti-ApoE C-terminal antibody was used as a reference antibody (ApoE E-8 mouse monoclonal, Santa Cruz Biotechnology, cat. no. sc-393302). 50 μl/well were added into the ELISA plates and incubated for 2 h at room temperature with shake (600-900 rpm). The plates were washed four times as described previously. […] After another wash (as described previously), 50 μl/well of K-Blue® aqueous substrate (Neogen) were added, and the reaction was stopped after 5-15 min with 50 μl/well of 0.5 M […]. The optical density at 450 nm was read using an ELISA reader (Tecan).

[2] = target: T2, recombinant C-terminal ApoE fragment L198-HIS (ApoE-L198-H299-10xHIS) (human, UniProt P02649 216-317); experiment: direct ELISA, L198-HIS coated at 0.1 µM
T2 construct: also called L198-HIS fragment
Procedure: as §1, §2

[3] = target: T3, recombinant C-terminal ApoE fragment G200-HIS (ApoE-G200-H299-10xHIS) (human, UniProt P02649 218-317); experiment: direct ELISA, target coated at 1 ug/ml, supernatant in 3-fold dilutions from 1000 ng/ml, OD 450 nm
T3 construct: also called G200-HIS fragment
Procedure: (§3) Selectivity evaluation by direct ELISA: The direct ELISA described below was used to evaluate the binding selectivity of generated monoclonal anti-ApoE antibodies with affinity for the N-terminal neo-epitope of C-terminal ApoE fragments starting at amino acid G200.
(§4) The screening was performed according to standard ELISA protocols. Briefly, 1 μg/ml solutions of N-terminal neo-epitope peptide (SEQ ID NO:50) conjugated to BSA, the recombinant C-terminal ApoE fragment G200-HIS (SEQ ID NO:48) and recombinant full-length ApoE4 (SEQ ID NO:45; Abcam; cat. no. ab50243) were prepared by dilution in PBS. 50 μl/well were added to an ELISA half-area 96 well microtiter plate. Then, the plate was sealed with adhesive sealer and incubated over night at 4° C. The plates were blocked with 150 μl/well of protein-free blocking solution (Pierce) for 1 h at room temperature with shake (600-900 rpm). The plates were washed four times with washing buffer containing 0.28 mM NaH₂PO₄, 2.5 mM Na₂HPO₄, 150 mM NaCl, 0.1% TWEEN®-20 and 0.0075% Kathon CG. Antibodies of interest were serially diluted 3-fold with a starting dilution at 1 μg/ml (mixed 1:1 with dilution buffer: PBS with 0.1% BSA and 0.05% TWEEN®-20) and incubated for 2 h at room temperature. The plates were washed four times as before. […] After another wash (as above), 50 μl/well of K-Blue® aqueous substrate (Neogen) were added, and the reaction was stopped after 5-15 min with 50 μl/well of 0.5 M […]. The optical density at 450 nm was read using an ELISA reader (Tecan). The optical density was plotted against the antibody concentration to generate concentration-response curves (FIG. 14).

[4] = target: T4, recombinant full-length ApoE4 (aa 1-299; SEQ ID NO:45; Abcam cat. no. ab50243) (human, UniProt P02649 19-317); experiment: as above
T4 construct: Bought protein; also called recombinant ApoE4 full-length protein
Procedure: as §3, §4

[5] = target: T5, G200 N-terminal neo-epitope peptide GQPLQE-Acp-C (SEQ ID NO:50) conjugated to BSA (human, not fully specified (residue 8); printed as GQPLQE-Acp-C; also: C-terminal Cys conjugated to BSA carrier); experiment: as above
T5 construct: also called G200-BSA peptide; G200-peptide
T5 peptide: GQPLQE[Ahx]C
Procedure: as §3, §4

[6] = target: T6, full-length ApoE in human brain extract from Alzheimer's disease patients (human, UniProt P02649 19-317); experiment: Western blot of AD brain RIPA 2% SDS extract; hybridoma supernatant as primary antibody
T6 construct: mature; Endogenous protein on Western blot or in solution (IP); also called ApoE full-length protein
Excerpt: Selectivity evaluation and human target binding in Alzheimer's disease brain extracts by Western blot analysis: The Western blot analysis described below was used to evaluate selective binding of monoclonal antibodies with affinity for the N-terminal neo-epitope of ApoE fragments […], starting at G200, without binding to ApoE full-length protein, in human brain extracts from an Alzheimer's disease patient. Fresh frozen brain tissue from the Alzheimer's disease patient was homogenized in RIPA 2% SDS extraction buffer, followed by centrifugation at 16000×g for 1 h. The subsequent supernatant was subjected to standard protein concentration determination.
RIPA 2% SDS brain extract containing 80 μg total protein was mixed with 2×Laemmli sample buffer, boiled for 5 min at 95° C. and loaded onto SDS-PAGE gels (Bolt™ 12% Bis-Tris Plus 10 well, Thermo Fisher, cat. no. NW00120BOX). Gels were run for 30-40 min at 180 V, after which proteins were transferred from the gels to nitrocellulose membranes using the Trans-Blot® Turbo™ system (Bio-Rad). Membranes were blocked in Odyssey® blocking buffer for 1 h and incubated over night at room temperature with hybridoma supernatant diluted 1:1 in Odyssey® blocking buffer with 0.1% TWEEN®-20. Membranes were washed and incubated for 1 h at room temperature with the detection antibody anti-mouse-800CW (LI-COR, cat. no. 925-32210) diluted 1:25000 in Odyssey® blocking buffer with 0.1% TWEEN®-20. Membranes were washed and images acquired using Odyssey® FC (LI-COR).

T4 sequence (P02649 19-317 C130R limits assumed): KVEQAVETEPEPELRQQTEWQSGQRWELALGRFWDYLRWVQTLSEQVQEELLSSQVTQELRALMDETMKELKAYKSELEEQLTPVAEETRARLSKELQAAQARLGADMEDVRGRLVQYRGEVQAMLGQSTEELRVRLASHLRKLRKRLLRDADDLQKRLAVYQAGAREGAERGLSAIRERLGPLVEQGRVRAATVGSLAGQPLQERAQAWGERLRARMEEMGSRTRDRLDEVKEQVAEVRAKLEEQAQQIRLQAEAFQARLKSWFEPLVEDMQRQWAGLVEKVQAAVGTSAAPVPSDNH
T6 sequence (P02649 19-317): as the sequence (P02649 19-317 C130R limits assumed) above, with R112C counted along it
T3 sequence (P02649 other isoform, or with tags, fused parts or gaps limits assumed): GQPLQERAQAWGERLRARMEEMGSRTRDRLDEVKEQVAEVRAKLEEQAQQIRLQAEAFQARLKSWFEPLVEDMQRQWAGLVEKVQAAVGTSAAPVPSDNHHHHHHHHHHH
T2 sequence (P02649 other isoform, or with tags, fused parts or gaps limits assumed): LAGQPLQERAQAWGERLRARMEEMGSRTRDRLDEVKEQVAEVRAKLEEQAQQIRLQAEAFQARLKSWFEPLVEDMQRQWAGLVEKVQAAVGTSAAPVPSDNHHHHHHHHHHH

Row | Binder | EC50 [1] [ng/mL] | EC50 [2] [ng/mL] | EC50 (read off the curve) [3] [ng/mL] | binding result [4] | EC50 (read off the curve) [5] [ng/mL] | binding result [6]
1 | 12B1, monoclonal anti-L198 antibody (antibody, IgG2c, V domains shown) VH: EVKLEESGGGLVQPGGSMKLSCVASGITFSKYWMNWVRQCPEKGLEWVAQIRLRSDNYATHYAESVKGRFTISRDDSKSSVYLQMNTLRAEDTGIYYCTHHYYGSSGYVDVWGTGTTVTVSS VL: DIVMTQSQKFMSTSVGDRVSVTCKASQNVGTNVAWYQQKPGQCPKGMILSASQRYSGVPDRFTGSGFGTEFTLTISNVQSEDLAEYFCQQYNSYPYTFGGGTKLERK | 15.2 | 8.7 | – | – | – | –
2 | 15H11, monoclonal anti-L198 antibody (antibody, IgG1, V domains shown) VH: EVKLEESGGGLVQPGGAMKLSCVASGITFSNYWMNWVRQCPEKGLEWVAQIRLKSDNYATHYAESVKGRFTISRDDSKSSVYLQMNTLRAEDTGIYYCTHHYYGSSGYVDVWGTGTTVTVSS VL: DIVMTQSQKFMSTSVGDRVSVTCKASQNVGNNVAWYQKKPGQCPKGMILSASQRYSGVPDRFTGSGFGTEFTLIISNVQSEDLAEYFCHQYNSYPYTFGGGTKLERK | 3.2 | 3.6 | – | – | – | –
3 | 4E6, hybridoma monoclonal antibody (unpurified supernatant) (antibody, V domains shown) VH: EVQLVESGGDLVKPGGSLKLSCAASGFTFSSYAMSWVRQSPEKRLEWVAEISGSGSRDHYTDSVTGRFTVSRDNAKNTLYLEMSSLRSEDTAIYYCARQLTGTDYYGTDYWGQGTSVTVSS VL: DVLMTQIPLSLPVSLGDQASISCRSSQSIVYSNGNTYLEWYLQRPGQSPKLLIYKVSNRFSGVPDRFSGSGSGTDFTLKISRVEAEDLGVYYCFQGSHLPYTFGGGTKLEIK | – | – | ~10 | no binding (tested: 1000 ng/ml) | ~10 | no binding (tested: supernatant diluted 1:1 (text))
4 | 7C7, hybridoma monoclonal antibody (unpurified supernatant) (antibody, mouse IgG2b, V domains shown) VH: EVQLVESGGGLVKPGGSLRLSCAASGFTFSSFAMSWVRQSPERRLEWVAEISRGGGYAFYSDTVTGRFTISRDNARNTLFLEMGSLRSEDTAMYYCSRQLTGTDYYAMDYWGQGTSVTVSS VL: DVLLTQTPLSLFVSLGDQASISCRSSQSIVYTNGNTYLEWYLQKPGQSPKLLIYKVSNRFSGVPDRFSGSGSGTDFTLKISRVEAEDLGVYYCFQGSQVPYTFGGGTKLELK | – | – | – | no binding (tested: 1000 ng/ml) | – | no binding (tested: supernatant diluted 1:1 (text))
5 | 7B10, hybridoma monoclonal antibody (unpurified supernatant) (antibody, mouse IgG1, V domains shown, also called 7610) VH: AVQLVESGGGLVKPGRSLKLSCAASGFTFSSYAMSWVRQFPDKRLDWVAEISSGGGSTNYLDTVTGRFTISRDNAKNTLYLEMNSLRSEDTAMYYCARQLVGTDYYGTDYWGQGTSVTVSS VL: DVLMTQTPLSLPVSLGDQASISCRSSQNIVYSNGNTYLEWYLQKPGQSPKLLIYKVSNRFSGVPDRFSGSGSGTDFTLKISRVEAEDLGVYYCFQGSHVPYTFGGGTKLEIK | – | – | ~8 | no binding (tested: 1000 ng/ml) | ~20 | no binding (tested: supernatant diluted 1:1 (text))
6 | 17G4, hybridoma monoclonal antibody (unpurified supernatant) (antibody, mouse IgG1, V domains shown) VH: EVQLVESGGGLVKPGGSLKLSCSASGFTFSRYAMSWVRQSPEKRLEWVAEINSGGSYSFYSDTVTGRFTISRDNAKNTLFLEMSSLRSEDTAIYYCARQLTGTDYYGTDYWGQGTSVTVSS VL: DVLMTQTPLSLPVSHGDQASISCRSSQSLLYSNGNTYLEWYLQKPGQSPKLLIYKVSNRFSGVPDRFSGSGSGTDFTLKISRVEAEDLGVYYCFQGSHVPYTFGGGTKLEIK | – | – | ~8 | no binding (tested: 1000 ng/ml) | – | no binding (tested: supernatant diluted 1:1 (text))
7 | 23D5, hybridoma monoclonal antibody (unpurified supernatant) (antibody, mouse IgG1, V domains shown) VH: EVQLVESGGGLVKPGGSLKLSCSASGFTFSRYAMSWVRQSPEKRLEWVAEINSGGSYSFYSDTVTGRFTISRDNAKNTLFLEMSSLRSEDTAIYYCARQLSGTDYYGTDYWGQGTSVTVSS VL: DVLMTQTPLSLPVSHGDQASISCRSSQSLLYSNGNTYLEWYLQKPGQSPKLLIYKVSNRFSGVPDRFSGSGSGTDFTLKISRVEAEDLGVYYCFQGSHVPYTFGGGTKLEIK | – | – | ~10 | no binding (tested: 1000 ng/ml) | – | no binding (tested: supernatant diluted 1:1 (text))
8 | 28F2, hybridoma monoclonal antibody (unpurified supernatant) (antibody, mouse IgG1, V domains shown) VH: QIQLVQSGPDLKKPGETVKISCKASGYTFTNYAMHWMKQAPGKALKWMGWINTYTGEPTFADDFKGRFAFSLETSASTAYLQINSLKNEDMATYFCAREGYYDRSHYFDYWGQGTTLTVSS VL: DVLMTQTPLSLPVSLGDQASISCRSSLSLVHGDGNTYLEWYLQKPGQSPKLLIYKVSNRFSGVPDRFSGSGSGTDFTLKISRVEAEDLGVYYCLQGSHIPFTFGSGTKLEIK | – | – | ~5 | no binding (tested: 1000 ng/ml) | – | no binding (tested: supernatant diluted 1:1 (text))
